Test system: K4 kissing-loop RNA reporter
Test: apparent KD of K4 kissing-loop reporter; higher = weaker reporter binding
Conditions: Eterna round: R107
Method: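 RNA-MaP round R107: designed RNA switches with theophylline, tryptophan, arginine or FMN aptamers are transcribed on-chip within common flanks. They are titrated with a labelled K4 kissing-loop RNA reporter in RNA-MaP buffer (100 mM Tris pH 7.5, 80 mM KCl, 4 mM MgCl2), without ligand or with the indicated ligand. Median apparent KD per design.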

[1] = input ligand: theophylline 20 uM
[2] = input ligand: tryptophan 2.4 mM
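Note: bound reporter read as fluorescence of individual clusters on recovered sequencing chips by microscopy, with normalized cluster intensities fitted with a binding model.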

Sequence | apparent KD of K4 kissing-loop reporter (input ligand: FMN 200 uM) [nM] | apparent KD of K4 kissing-loop reporter (input ligand: arginine 13.2 mM) [nM] | apparent KD of K4 kissing-loop reporter (input ligand: none) [nM] | apparent KD of K4 kissing-loop reporter [1] [nM] | apparent KD of K4 kissing-loop reporter [2] [nM]
CUGCCGUGCCAUGGGCCAGUGAUGUUGGAACGAGGACCGGUACGGCCGCCACUCGCUUAGCGUCAAAGGCGUCCCGAAUAGAAAG [theeternabot_exclusion_KL_Trp_A_14] | 374 | 230 | 340 | 317 | 374
GCCGUACGCAUGGAUACCAGUCUACAUCGCAGUGAUGUUGCGUAGUUCAGAUUAACUGCCGACCCUUGGCAGCCAUGCGUACGGC | 134 | 111 | 127 | 118 | 120
CGCAGUGAUGUUGCUAUUAUUCUUGGUUAACGAGGACCGGUACGGCCGCCACUCGAUGUCUGUCUAGUCCAGUGUUUUUUUGAGU [whbob_EX_Tryp_A_t8] | 351 | 467 | 506 | 579 | 228
AGUAGAGCAUCAGAUACCAGACUGAACUGAUGGUAAGGAGUGAUGUUCCUUAAUCAGCUAGUCCCUUGGCAGCUGAUAAUAGUCA [Theo B SS t3] | 251 | 253 | 268 | 183 | 222
UGACUGGAUGGAAGGAGCGCUAAACUCCUAGUGAUGUUAGGGAAACGAGACAAAGUCUCGAAGCAGGUAGGUCGCCAUCUAGUCU [FiskerMod 14 - Jieux - Same State - Arginine B] | 176 | 134 | 158 | 146 | 155
GUGGAAUUAUGAAAGUGGUUUUAUUAGGAAGGAGCGGCCGAAAGGCCAGGUAGGUCGCCUAUUGACAGUGAUGUUGUUAUAUGGU [#14] | 158 | 199 | 151 | 204 | 94.3
CCGCUACCCUCAGGAUAUUAAAUAUUAGUGAUGUUAAUAAACCGAUGGCGAAAGCCAUCGGUAUGUUAAGAAGGGAGGGUAGCGG | 138 | 847 | 974 | 949 | 965
AAUAUAAAGUCGGCCGCCACUGGAUUUAUAUUUGUUAAAUCUGGAUCAAAGUGAUGUUUUGAGUCCAGGACCGGGACAAUUGUUA [JR_ExcTryptoB_Sub001] | 123 | 117 | 120 | 122 | 203
UUGAGCCUGACGUAAGUCAGGCUCUGCGAGCGAGGACCGGUACGGCCGCCACUCGGUGCAGUGAUGUUGCAUGGCCGCAAGGCCG [#2 Exclusion - Tryptophan A Attempt #15 (HarryS)] | 278 | 257 | 363 | 259 | 339
AACCACUCGUUACAUCACUAUCGAGUGGAACGAGGACCGGUACGGCCGCCACUCGAAUAGAUGCAGUGAUGUUGCAUCUUGGAAU [KL-SSTryp-A (BrourdMod)4 #dotplot2 strengthened] | 181 | 141 | 163 | 156 | 132
GUUACGCAUGGAAGGAGCGCAGGCUCAACAAAUAGCUCAGUGAUGUUGAGCAUAUUAAAUCUGCAGGUAGGUCGCCAUGUGUAAC [Ex Arginine B K4 24] | 498 | 500 | 504 | 559 | 581
CCUCACGUAGGACUAGUGAUGUUAGACUACCGAGGACCGGUACGGCCGCCACUCGUCGUACAAGAUAACCUUCCGCCAGUAUACA | 113 | 91.8 | 99.9 | 83.6 | 108
CCACCUCCAGAAGGAUAUAGUGUAUCAGAUUCACUCGAGUGCCUUAAACUAAGGAGUGAUGUUCCGCUAGAAGGUCUCGUAGGCA [theeternabot_exclusion_KL_FMN_B_45] | 191 | 145 | 149 | 138 | 133
UGGAGUUGACGAAAAGUCAACUCCCGAGAAGGAGCGGACGAAAGUCCAGGUAGGUCGCUCGCUACCAGUGAUGUUGGUACUCAAA | 127 | 182 | 156 | 192 | 135
CGAGCGGAGUGAUGUUCCGUGCCAGCAGAUACCAGAUUGAAAGAGAUCCCUUGGCAGCUGCGUCACACCCUUACGUGAUAGGACC [theeternabot_sameState_KL_Theo_A_32] | 244 | 178 | 239 | 275 | 165
CCAUCGCUAUUCGAUACCAGCCAGGAGGUCUUUGGCCUCCUAUUGGAGUGAUGUUCCAUAGGCCCUUGGCAGCGAAUAGUGAUGG [Theophylline B K4 16] | 372 | 187 | 283 | 542 | 374

Sequence | apparent KD of K4 kissing-loop reporter (input ligand: FMN 200 uM) [nM] | apparent KD of K4 kissing-loop reporter (input ligand: arginine 13.2 mM) [nM] | apparent KD of K4 kissing-loop reporter (input ligand: none) [nM] | apparent KD of K4 kissing-loop reporter [1] [nM] | apparent KD of K4 kissing-loop reporter [2] [nM]
UGAUCACAGUGAUGUUGUGGCAAAAGUGAUACCAGCCGUGUACGAGGCCCUUGGCAGCACCAGGGCUGUACGUCGUUAGAUCCGG [theeternabot_exclusion_KL_Theo_A_33] | 211 | 156 | 194 | 177 | 169
AAGUGAUGUUGUAGUGAUGUUGUGAUGUUGCAGGAUAUAUAGUGAUGUAGAAGGGUAUGUGCAGUGUUGUUGUUUGAGUGUUGAU [twwumullin] | 90.3 | 43.2 | 74.7 | 68.6 | 68.7
UGCGCUGUGUACUGUAAUGUUAUGCGGGAUACCAGAGUCUUUUUAUUCCCUUGGCAGCUUGAGUGAUGUUUGAUGCCGUUCUUGU [plpkmullin] | 481 | 327 | 504 | 452 | 401
GUAGACAGACUGCGGGCCUAGUCUACAGACUAGGAUAUCAGGAAACUGAGAAGGAGUCUAGUUGCAGUGAUGUUGCAAGAAUAAU [KL-SSFMN-A26] | 99.1 | 115 | 93.6 | 114 | 78.4
CGUUGUGAUGCUUGUGCUCAUACCGGAGAUACCAGUACCAUCACUUACCCUUGGCAGCUCAGUAAAGACAAGUGAUGUUUGUCAC [theeternabot_sameState_KL_Theo_A_38] | 684 | 528 | 805 | 560 | 502
GCCGUAGAUCGAAGGAGCGUGUCCAAACCUCAUUCAUGUACACACGAGUGAUGUUCGUGUACACAGGUAGGUCGCGAUCUACGGC [#04 K4 Arginine B Exclusion] | 344 | 281 | 331 | 294 | 310
CAAACGGGUUGGCUUGGAGACUGCAGACGCAAGGAUAUCGCGAAGACGAGAAGGUGCGGGCCUGGUAGUGAUGUUACAGUUUGGU [theeternabot_sameState_KL_FMN_A_21] | 358 | 326 | 395 | 367 | 254
AAUACUAUCAGAAGGAGCGUGGAAUAUUCAUCUGUAUCUAAUACGAGUGAUGUUCGUAAUUCACAGGUAGGUCGCUGAUUAAUAC [whbob_Ex_Arginine_B_2th158] | 265 | 245 | 288 | 304 | 245
GGUAGCAUGGCGGCCGCCACUUCAAGUGGAGUGAUGUUCCACGGCAUCGCGAAAGCGAUGCCUGGAAGGACCGGGCCAUGCUACC | 738 | 739 | 720 | 761 | 284
AGACCACAAAGUGGUCAGUGUUCGCUCCGGCGAGGACCGGUACGGCCGCCACUCGCGAGUGAUGUUCGCGAGUGGAGCGAACACA [Omei KL Tryp A Exc A v1] | 88.8 | 78 | 88.6 | 76 | 86.3
AAGACUUGCAUCGAUACCAGCCCAGUGAUGUUGGGCUGCUCUCCAUGGGUGCCAGACACGGGCCCUUGGCAGCGAGGUAAGGCCC [Soveri] | 129 | 110 | 113 | 109 | 106
UGUAUGUGAUUUGAUACCAGACCAGCUGGUGGAAUCUGAGUGAUGUUCAGGUAGGUUUGGGUCCCUUGGCAGCAAAUCGCAUACU [KL-SSTheoB27] | 203 | 145 | 182 | 181 | 170
AUGUCGUUAUAGUGAGUGAUGUUCACUGUGCGAGGACCGGUACGGCCGCCACUCGAGAGUGGUGGACACUGAGUCACUCUGACAC [Tryp A Ex t2] | 124 | 123 | 130 | 111 | 283
CCGCCGGUCGGAAGGAGCGCACGCCAGAGUGAUGUUCUGGCGCAGGCAUUUAGUGCCCGCGUGCAGGUAGGUCGCCGAUUCUGGC [Arlaaa] | 341 | 310 | 423 | 234 | 270
UCCAAGGACGAACCGGUAUGAUCACCGGAUACCAGAGGCGAAAGCCUCCCUUGGCAGCCGAGUGUAGUGAUGUUACACUGGUUCU | 89.8 | 82.8 | 90.7 | 94.5 | 91.5
UCUUGCGGCGCAGGAUAUCCGUCUGUCUCCUGCGUCAUUCUGCAGUGAUGUUGCAGGUGACGGAUAGGAGAAGGGCGAACGUACA [Diinonorce] | 133 | 104 | 124 | 117 | 112

— the supplement of paper PMC9170038
